From PMC4237329, “Early Chordate Origin of the Vertebrate Integrin αI Domains” (PLoS ONE, 2014)
Like-named read-outs stand apart in the source and are kept apart here.

B1: Pma_f2 αI domain (sea lamprey integrin α subunit fragment Pma_f2), GST-fusion protein (domain or fragment, sea lamprey (Petromyzon marinus))
chain: ADFQVTSTLTPAAQRCGLFMDIVIVLDGSNSIYPWQEVQNFVINIVKKFHIGPGQSRNGGGSTRFGVRTIHWHLGIARWACEGVQDVENIYSRPFVRTASALCQSLQVVRSEAFSPLFGAREGASKVMIVVTDGESHDSEDLTEAIAACERDNITRYAIAVLGYYKRKNIDPSNFISELKAISSEPEEKHFINVADEAALNDIVGTLGERIFSLEGTV
notes: also called Pma αI domains; source: E. coli BL21 tuner (gene synthesized, in pGEX-2T), recombinant GST-fusion protein, "sufficiently pure"

Target: T1, rat tail collagen I (rat, UniProt P02454 152-1207; P02466 86-1125)
T1 construct: collagen α1(I) chain, rat; collagen α2(I) chain, rat; also called rat collagen I; source: bought: Sigma Aldrich (rat tail collagen I)
Test: solid-phase binding assay (Europium-labelled anti-GST antibody, time-resolved fluorescence); 96-well plates coated with rat collagen I; GST-αI domain at various concentrations, one hour at RT, PBS + 2 mM MgCl2; apparent affinity constants from a hyperbolic fit (Hill's equation with h = 1)

T1 sequence (P02454 152-1207, chain 1 of 2): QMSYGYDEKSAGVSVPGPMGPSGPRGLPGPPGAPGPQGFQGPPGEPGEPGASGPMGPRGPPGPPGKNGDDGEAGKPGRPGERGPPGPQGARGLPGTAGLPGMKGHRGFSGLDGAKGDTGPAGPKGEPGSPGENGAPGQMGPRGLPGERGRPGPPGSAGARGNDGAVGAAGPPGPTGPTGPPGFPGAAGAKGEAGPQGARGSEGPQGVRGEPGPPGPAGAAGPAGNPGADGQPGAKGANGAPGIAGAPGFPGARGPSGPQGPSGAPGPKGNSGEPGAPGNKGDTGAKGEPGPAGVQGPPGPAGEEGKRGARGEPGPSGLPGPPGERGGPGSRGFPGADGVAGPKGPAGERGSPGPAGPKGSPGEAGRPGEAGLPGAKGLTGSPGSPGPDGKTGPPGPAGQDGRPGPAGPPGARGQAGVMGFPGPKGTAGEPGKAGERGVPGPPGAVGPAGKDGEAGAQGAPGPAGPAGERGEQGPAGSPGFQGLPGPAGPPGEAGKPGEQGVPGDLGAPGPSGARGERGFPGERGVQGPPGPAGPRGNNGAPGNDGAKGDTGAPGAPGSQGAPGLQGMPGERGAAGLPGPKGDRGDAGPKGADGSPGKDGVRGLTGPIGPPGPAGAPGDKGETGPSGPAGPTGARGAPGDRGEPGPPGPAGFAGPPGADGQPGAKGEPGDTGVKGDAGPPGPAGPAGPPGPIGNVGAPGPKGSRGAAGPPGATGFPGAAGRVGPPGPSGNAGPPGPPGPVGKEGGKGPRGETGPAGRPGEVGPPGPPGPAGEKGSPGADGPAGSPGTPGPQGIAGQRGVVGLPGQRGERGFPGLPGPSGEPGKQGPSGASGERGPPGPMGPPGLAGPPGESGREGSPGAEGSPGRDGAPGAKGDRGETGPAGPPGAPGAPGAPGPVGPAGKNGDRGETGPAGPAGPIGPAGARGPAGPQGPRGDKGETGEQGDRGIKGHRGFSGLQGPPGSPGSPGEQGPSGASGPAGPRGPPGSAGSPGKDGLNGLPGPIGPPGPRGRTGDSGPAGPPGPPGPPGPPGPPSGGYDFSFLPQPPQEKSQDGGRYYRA
T1 sequence (P02466 86-1125, chain 2 of 2): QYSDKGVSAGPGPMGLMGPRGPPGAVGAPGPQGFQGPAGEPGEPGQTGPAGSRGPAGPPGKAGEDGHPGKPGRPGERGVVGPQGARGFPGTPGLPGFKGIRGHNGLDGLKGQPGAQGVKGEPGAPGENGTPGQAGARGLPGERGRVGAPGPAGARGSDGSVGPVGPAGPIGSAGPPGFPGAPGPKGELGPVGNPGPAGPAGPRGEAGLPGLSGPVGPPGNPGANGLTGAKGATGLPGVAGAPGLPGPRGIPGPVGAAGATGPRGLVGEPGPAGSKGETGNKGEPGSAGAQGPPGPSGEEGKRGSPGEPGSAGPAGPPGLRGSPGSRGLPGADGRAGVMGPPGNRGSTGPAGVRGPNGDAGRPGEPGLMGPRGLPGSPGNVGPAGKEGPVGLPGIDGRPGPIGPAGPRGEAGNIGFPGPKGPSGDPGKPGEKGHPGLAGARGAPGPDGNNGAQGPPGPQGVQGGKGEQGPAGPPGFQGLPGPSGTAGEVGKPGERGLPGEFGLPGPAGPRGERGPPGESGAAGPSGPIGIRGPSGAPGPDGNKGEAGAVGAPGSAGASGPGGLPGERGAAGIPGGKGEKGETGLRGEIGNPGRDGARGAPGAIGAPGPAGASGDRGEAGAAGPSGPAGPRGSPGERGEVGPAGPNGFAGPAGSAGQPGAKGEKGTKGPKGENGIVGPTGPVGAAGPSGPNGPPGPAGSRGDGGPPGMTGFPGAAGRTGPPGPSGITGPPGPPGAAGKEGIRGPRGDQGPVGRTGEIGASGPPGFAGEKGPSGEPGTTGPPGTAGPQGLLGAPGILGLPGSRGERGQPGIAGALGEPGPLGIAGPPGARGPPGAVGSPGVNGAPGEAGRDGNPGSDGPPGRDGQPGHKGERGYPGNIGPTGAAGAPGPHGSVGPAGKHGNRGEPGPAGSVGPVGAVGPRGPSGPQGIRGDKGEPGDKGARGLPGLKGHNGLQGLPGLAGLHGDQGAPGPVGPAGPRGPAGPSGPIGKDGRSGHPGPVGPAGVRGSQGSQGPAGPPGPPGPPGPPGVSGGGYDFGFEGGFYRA

Kd [nM]	Kd (both partners purified) [nM]	Molecule
200	–	Pma_f1 αI domain (sea lamprey integrin α subunit fragment Pma_f1), GST-fusion protein (domain or fragment)
195	–	Pma_f3 αI domain (sea lamprey integrin α subunit fragment Pma_f3), GST-fusion protein (domain or fragment)
–	375 ± 120	B1
